# According to US20230218656, “POLYPEPTIDES […] AGAINST VIRAL INFECTION AND USES […]” (QUADRUMIX BIOTECHNOLOGY INC., published 2023):
# Target: sdAb1 (NB07) (Artificial sequence)
# Experiment: MST; negative control; p86 says only weak interaction in phage ELISA (FIG. 4)
# Conditions: G4
# Chain of sdAb1 (NB07) (Artificial sequence) (chain, as listed by the source): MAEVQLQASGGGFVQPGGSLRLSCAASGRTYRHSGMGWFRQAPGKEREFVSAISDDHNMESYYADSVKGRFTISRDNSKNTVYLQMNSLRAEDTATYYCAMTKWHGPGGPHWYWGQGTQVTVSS
binder,measurement,value
CTGGGAGGAGCTGGGGGAGGAGA (structured_DNA) [HBV pre-core promoter G-quadruplex (WT)],binding result,no binding
